Experimental data as given in PMC5416842, “The ribosome biogenesis factor yUtp23/hUTP23 coordinates key interactions in the yeast and human pre-40S particle and hUTP23 contains an essential PIN domain” (Nucleic Acids Research, 2017).
Each block holds one molecule with its values, some of them ahead of it.

B1: GST-tagged human hUTP23 (natural protein, UniProt Q9BRU9 1-249, looked up)
chain: MKITRQKHAKKHLGFFRNNFGVREPYQILLDGTFCQAALRGRIQLREQLPRYLMGETQLCTTRCVLKELETLGKDLYGAKLIAQKCQVRNCPHFKNAVSGSECLLSMVEEGNPHHYFVATQDQNLSVKVKKKPGVPLMFIIQNTMVLDKPSPKTIAFVKAVESGQLVSVHEKESIKHLKEEQGLVKNTEQSRRKKRKKISGPNPLSCLKKKKKAPDTQSSASEKKRKRKRIRNRSNPKVLSEKQNAEGE
notes: hUTP23, human; open reading frame amplified from human cDNA; also called GST-hUTP23
B2: protein-A-His-tagged yUtp23 (natural protein, S. cerevisiae, UniProt Q12339 1-254, looked up)
chain: MRQKRAKSYRKQLLVYSHTFKFREPYQVLVDNQLVLECNNSNFNLPSGLKRTLQADVKVMITQCCIQALYETRNDGAINLAKQFERRRCNHSFKDPKSPAECIESVVNISGANKHRYVVASQDIDLRRKLRTVPGVPLIHLTRSVMVMEPLSTASAKASKITEEQKLYKGLNDPNIEKLQESGDGSGKESITKKRKLGPKAPNPLSVKKKKKVNSPSDEVKDKEDTSKEKKKRRRRKHKSNTNVPVSNGTTAAQ
notes: yUtp23, S. cerevisiae; open reading frame amplified from yeast genomic DNA

How the values were obtained:
[1] = tested on: GST-yUtp23 WT (Saccharomyces cerevisiae); assay: EMSA; conditions: 100-1000 nM protein; EMSA: 10 mM Tris/HCl pH 7.6, 75 mM NaCl, 2 mM DTT, 100 ng/ul BSA, 0.8 U/ul RNasin, 4.5% glycerol, 0.05% Tween20, 500 ng/ul E. coli tRNA; 10 min 30 C then 10 min
[2] = biological target: T1, GST-yUtp23 WT (Saccharomyces cerevisiae) (UniProt Q12339); assay: EMSA; conditions: EMSA: 10 mM Tris/HCl pH 7.6, 75 mM NaCl, 2 mM DTT, 100 ng/ul BSA, 0.8 U/ul RNasin, 4.5% glycerol, 0.05% Tween20, 500 ng/ul E. coli tRNA; 10 min 30 C then 10 min
T1 sequence: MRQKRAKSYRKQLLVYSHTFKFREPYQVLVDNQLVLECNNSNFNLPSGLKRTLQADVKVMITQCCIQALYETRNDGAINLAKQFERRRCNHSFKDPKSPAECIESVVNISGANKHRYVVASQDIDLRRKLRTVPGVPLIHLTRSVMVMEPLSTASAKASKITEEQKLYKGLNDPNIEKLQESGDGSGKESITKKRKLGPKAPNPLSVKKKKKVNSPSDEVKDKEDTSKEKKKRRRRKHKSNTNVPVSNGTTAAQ

[3] = biological target: T1, GST-yUtp23 WT (Saccharomyces cerevisiae); assay: competition; conditions: EMSA: 10 mM Tris/HCl pH 7.6, 75 mM NaCl, 2 mM DTT, 100 ng/ul BSA, 0.8 U/ul RNasin, 4.5% glycerol, 0.05% Tween20, 500 ng/ul E. coli tRNA; 10 min 30 C then 10 min
[4] = biological target: T2, N-terminally His-tagged hRRP7 (human, UniProt Q9Y3A4 1-280); assay: pull-down; GST-tagged hUTP23 immobilised on glutathione sepharose (pre-blocked with BSA), incubated with N-terminally His-tagged recombinant human proteins for 1 h at 4°C in Buffer NB (20 mM Tris/HCl pH 7.6, 150 mM NaCl, 8.7% glycerol, 0.1% Tween20); five washes; SDS-PAGE, immunoblotting with anti-His and anti-GST antibodies; conditions: both partners purified
T2 construct: hRRP7, human; open reading frame amplified from human cDNA; The legend says that C-terminally truncated forms of the His-tagged hRRP7 protein were also present in the preparation; not shown: His tag, N-terminal, kept
T2 sequence (looked up): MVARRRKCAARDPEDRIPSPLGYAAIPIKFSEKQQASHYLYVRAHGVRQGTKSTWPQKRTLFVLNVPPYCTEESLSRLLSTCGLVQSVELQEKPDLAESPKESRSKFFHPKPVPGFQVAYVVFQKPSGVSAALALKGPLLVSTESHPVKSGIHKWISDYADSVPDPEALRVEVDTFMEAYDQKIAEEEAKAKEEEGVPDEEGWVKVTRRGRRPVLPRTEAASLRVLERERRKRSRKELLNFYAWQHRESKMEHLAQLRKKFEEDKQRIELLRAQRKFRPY

GST-tagged yeast yRrp7 = biological target: T3, GST-tagged yeast yRrp7 (S. cerevisiae, UniProt P25368 1-297); assay: pull-down; GST-tagged yeast bait proteins immobilised on glutathione sepharose (pre-blocked with BSA), incubated with recombinant protein-A-His-tagged yUtp23 for 1 h at 4°C in Buffer NB (20 mM Tris/HCl pH 7.6, 150 mM NaCl, 8.7% glycerol, 0.1% Tween20); five washes; SDS-PAGE, Coomassie staining; conditions: both partners purified
T3 construct: yRrp7, S. cerevisiae; open reading frame amplified from yeast genomic DNA; also called GST-yRrp7
T3 sequence (looked up): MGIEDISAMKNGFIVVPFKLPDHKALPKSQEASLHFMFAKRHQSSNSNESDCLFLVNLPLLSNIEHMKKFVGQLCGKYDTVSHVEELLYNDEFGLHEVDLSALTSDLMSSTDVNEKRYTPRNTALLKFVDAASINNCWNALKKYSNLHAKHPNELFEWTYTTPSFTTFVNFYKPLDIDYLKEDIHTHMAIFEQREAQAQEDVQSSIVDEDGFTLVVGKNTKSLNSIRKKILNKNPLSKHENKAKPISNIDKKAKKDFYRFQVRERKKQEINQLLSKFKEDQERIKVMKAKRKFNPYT

GST-tagged yeast yUtp23 = biological target: T4, GST-tagged yeast yUtp23 (S. cerevisiae, UniProt Q12339 1-254); assay: as above; conditions: both partners purified
T4 construct: yUtp23, S. cerevisiae; open reading frame amplified from yeast genomic DNA; also called GST-yUtp23
T4 sequence (looked up): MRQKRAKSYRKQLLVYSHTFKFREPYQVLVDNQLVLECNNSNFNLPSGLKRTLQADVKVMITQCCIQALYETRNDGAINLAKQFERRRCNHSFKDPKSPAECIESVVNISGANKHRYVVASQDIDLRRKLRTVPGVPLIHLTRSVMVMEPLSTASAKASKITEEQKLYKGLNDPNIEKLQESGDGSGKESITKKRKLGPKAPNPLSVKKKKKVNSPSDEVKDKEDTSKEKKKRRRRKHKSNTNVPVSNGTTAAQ

GST-tagged human hUTP23 = biological target: B1; assay: pull-down; GST-tagged hUTP23 immobilised on glutathione sepharose (pre-blocked with BSA), incubated with N-terminally His-tagged recombinant human proteins for 1 h at 4°C in Buffer NB (20 mM Tris/HCl pH 7.6, 150 mM NaCl, 8.7% glycerol, 0.1% Tween20); five washes; SDS-PAGE, immunoblotting with anti-His and anti-GST antibodies; conditions: both partners purified
[5] = biological target: B2; assay: pull-down; GST-tagged yeast bait proteins immobilised on glutathione sepharose (pre-blocked with BSA), incubated with recombinant protein-A-His-tagged yUtp23 for 1 h at 4°C in Buffer NB (20 mM Tris/HCl pH 7.6, 150 mM NaCl, 8.7% glycerol, 0.1% Tween20); five washes; SDS-PAGE, Coomassie staining; conditions: both partners purified

Molecule: snR30 full length (nt 1-606)
- Kd [1]: 300 nM

Molecule: GGGUAGGACGCAUGAUCUUGAGCUCUUUUCCUAUACUUUGUCCUAUGGCCAGCUUUCUCCUUAUUACGAAGAGAUUGCGGGAUGUGGGUGCAGAGUGGGAAAAUCUGAGUUCGGUCAUCUUUGUUGUUCGUCCUAC [snR30 IH (nt 398-531)]
- binding [2]: no binding

Molecule: GGCCGCAGUAUAUUCCUAAACACUAUGAAAUGACCCUAGUUGGUCCAUGAUCAUUUGGGUAAAACCAUACUGCAGACAUCU [snR30 3' HP (nt 531-606)]
- binding [2]: no binding

Molecule: GGGUAGGACGCAUGAUCUUGAGCUCUUUUCCUAUACUUUGUCCUAUGGCCAGCUUUCUCCUUAUUACGAAGAGAUUGCGGGAUGUGGGUGCAGAGUGGGAAAAUCUGAGUUCGGUCAUCUUUGUUGUUCGUCCUACCGCAGUAUAUUCCUAAACACUAUGAAAUGACCCUAGUUGGUCCAUGAUCAUUUGGGUAAAACCAUACUGCAGACAUCU [snR30 IH + 3' HP (nt 398-606)]
- binding [2]: binds more weakly

Molecule: GGCGUAUUGCUCGAAUAUAUUAGCAUGGAAUAAUAGAAUAGGACGUUUGGUUCUAUUUUGUUGGUUUCUAGGACCAUCGUAAUGAUUAAUAGGGACGGUCGGGGGCAUCAGUAUUCAAUUGUCAGAGGUGAAAUUCUUGGAUUUAUUGAAGACUAACUACUGCGAAAGCAUUUGCCAAGGACGUUUUCA [18S rRNA ES6 fragment (nt 775-963, RNA A)]
- binding [3]: binds

Molecule: B1
- binding result [4]: binds

Molecule: B2
- binding result (GST-tagged yeast yRrp7): binds
- binding result (GST-tagged yeast yUtp23): binds

- binding result (GST-tagged human hUTP23): binds
B3: N-terminally His-tagged hNHP2 (natural protein, human, UniProt Q9NX24 1-153, looked up)
chain: MTKIKADPDGPEAQAEACSGERTYQELLVNQNPIAQPLASRRLTRKLYKCIKKAVKQKQIRRGVKEVQKFVNKGEKGIMVLAGDTLPIEVYCHLPVMCEDRNLPYVYIPSKTDLGAAAGSKRPTCVIMVKPHEEYQEAYDECLEEVQSLPLPL
notes: core box H/ACA protein hNHP2, human; open reading frame amplified from human cDNA; not shown: His tag, N-terminal, kept

- binding result (GST-tagged human hUTP23): binds
B4: N-terminally His-tagged hUTP24 (natural protein, human, UniProt Q9Y324 1-198, looked up)
chain: MGKQKKTRKYATMKRMLSLRDQRLKEKDRLKPKKKEKKDPSALKEREVPQHPSCLFFQYNTQLGPPYHILVDTNFINFSIKAKLDLVQSMMDCLYAKCIPCITDCVMAEIEKLGQKYRVALRIAKDPRFERLPCTHKGTYADDCLVQRVTQHKCYIVATVDRDLKRRIRKIPGVPIMYISNHRYNIERMPDDYGAPRF
notes: hUTP24 (human homologue of yUtp24/Fcf1); open reading frame amplified from human cDNA; not shown: His tag, N-terminal, kept

- binding result [5]: binds
B5: GST-tagged yeast yUtp24 (natural protein, S. cerevisiae, UniProt Q05498 1-189, looked up)
chain: MGKAKKTRKFGLVKRTLNTKKDQRLKKNQENIKTKEDPELTRNIPQVSSALFFQYNQAIKPPYQVLIDTNFINFSIQKKVDIVRGMMDCLLAKCNPLITDCVMAELEKLGPKYRIALKLARDPRIKRLSCSHKGTYADDCLVHRVLQHKCYIVATNDAGLKQRIRKIPGIPLMSVGGHAYVIEKLPDVF
notes: yUtp24/Fcf1, S. cerevisiae; open reading frame amplified from yeast genomic DNA; also called Fcf1; yUtp24(Fcf1)
